Measured values reported in paper PMC4681064.

Assays:
Test in all cases: GST pulldown, Western blot densitometry
Conditions in all cases: incubated overnight with lysates; GST-only control 10 (PA2 lysate), 8 (WT lysate)
[1] = molecular target: GST-tagged CMS SH3 domain III
[2] = molecular target: GST-tagged CMS SH3 domain I
[3] = molecular target: GST-tagged CMS SH3 domain II

Substance “HCV NS5A protein (WT) expressed from SGR-neo-JFH-1 (from UniProt Q99IB8) PA2: P2 motif PTPPPR -> ATPAAA (P->A; P->A; P->A; R->A; residue numbers not printed)” has a response (NS5A:GST-SH3 ratio (%)) [1] of 10, a response (NS5A:GST-SH3 ratio (%)) [2] of 16 and a response (NS5A:GST-SH3 ratio (%)) [3] of 9.
